Source: US20230365711A1 (Hoffmann-La Roche, published 2023)
Residue numbers refer to the chain shown, from its start. Numbers in names are those of the source.

T1: huNABA-avi-his (hybrid protein N-A1-B3-A2: N and A1 domains of human BGP, B3 domain of human CEA, A2 domain … (human, biotinylated at the avi tag (in vivo, co-transfected biotin ligase)))
T1 construct: also called NABA-avi-his reagent; biotinylated NABA
T1 chain: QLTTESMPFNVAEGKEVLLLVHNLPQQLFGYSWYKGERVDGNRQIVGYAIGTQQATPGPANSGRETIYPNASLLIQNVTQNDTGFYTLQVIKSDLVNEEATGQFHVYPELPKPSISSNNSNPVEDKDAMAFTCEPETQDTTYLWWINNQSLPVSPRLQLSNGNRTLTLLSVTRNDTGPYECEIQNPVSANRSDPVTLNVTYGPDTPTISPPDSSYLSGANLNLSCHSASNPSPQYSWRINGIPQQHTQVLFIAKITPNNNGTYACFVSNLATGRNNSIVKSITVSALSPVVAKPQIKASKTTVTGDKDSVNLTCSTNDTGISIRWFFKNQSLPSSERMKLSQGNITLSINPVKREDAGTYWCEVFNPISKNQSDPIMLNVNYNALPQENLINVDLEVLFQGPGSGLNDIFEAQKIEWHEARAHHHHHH

B1: H3 Full (5) 8 (Fab, V domains shown)
VH: QVQLVQSGSELKKPGASVKVSCKASGYTFTEFGMNWVRQAPGQGLEWMGWINTKTGEATYVEEFKGRFVFSLDTSVSTAYLQISSLKAEDTAVYYCARWDFFEYFKTMDYWGQGTTVTVSS
VL: DIQMTQSPSSLSASVGDRVTITCKASQNVGTNVAWYQQKPGKAPKLLIYSASYRYSGVPSRFSGSGSGTDFTLTISSLQPEDFATYYCHQYYTYPLFTFGQGTKLEIK
B2: 1C8 x 2F1 (Fab, V domains shown)
VH: B1 VH with F102Y, E103H, F105V, K106E, T107A
VL: B1 VL with Q27A, N28A, N32Y, Y55K, S56R
notes: also called 1C8 x 2F1 hc/lc, monovalent; copies: 1 + 1
B3: 3A1 (Fab, V domains shown)
VH: B1 VH with F102Y, E103D, F105V, K106E, T107A
VL: B1 VL with Q27A, T31N, S50L, Y53N, Y55S, S56G
notes: also called pAC21 (3A1); 3A1 wt/lc
B4: antibody with heavy chain CH7A (A103T) and light chain 2F1 (antibody, V domains shown)
VH: B1 VH with F102Y, E103D, F105V, K106E
VL: DIQMTQSPSSLSASVGDRVTITCKASAAVGTYVAWYQQKPGKAPKLLIYSASYRKRGVPSRFSGSGSGTDFTLTISSLQPEDFATYYCHQYYTYPLFTFGQGTKLEIKR
notes: Bivalent form
B5: antibody with heavy chain CH7A (Y98A) and light chain 2F1 (antibody, V domains shown)
VH: B1 VH with F102A, E103D, F105V, K106E, T107A
VL: B4 VL
notes: Bivalent form
B6: antibody with heavy chain CH7A (E102Q) and light chain 2F1 (antibody, V domains shown)
VH: B1 VH with F102Y, E103D, F105V, K106Q, T107A
VL: B4 VL
notes: Bivalent form
B7: antibody with heavy chain CH7A (D99Y) and light chain 2F1 (antibody, V domains shown)
VH: B1 VH with F102Y, E103Y, F105V, K106E, T107A
VL: B4 VL
notes: Bivalent form
B8: antibody with heavy chain CH7A (V101F) and light chain 2F1 (antibody, V domains shown)
VH: B1 VH with F102Y, E103D, K106E, T107A
VL: B4 VL
notes: Bivalent form
B9: antibody with heavy chain CH7A (D99H) and light chain 2F1 (antibody, V domains shown)
VH: B1 VH with F102Y, E103H, F105V, K106E, T107A
VL: B4 VL
notes: Bivalent form
B10: pAC19 (2C6) (Fab, V domains shown)
VH: B1 VH with F102Y, E103D, F105V, K106E, T107A
VL: B1 VL with Q27K, L46P, S50L, R54P, Y55Q, S56I
B11: pAC23 (2F11) (Fab, V domains shown)
VH: B1 VH with F102Y, E103D, F105V, K106E, T107A
VL: B1 VL with N28I, V29A, G30S, S50W
B12: L2D2 (Fab, V domains shown)
VH: B1 VH with F102Y, E103D, F105V, K106E, T107A
VL: B1 VL with Q27H, Y53H
B13: anti-CEA antibody with heavy chain CH1A1E and light chain 2F1 (antibody, V domains shown)
VH: QVQLVQSGAEVKKPGASVKVSCKASGYTFTEFGMNWVRQAPGQGLEWMGWINTKTGEATYVEEFKGRFTMTTDTSTSTAYMELRSLRSDDTAVYYCARWDFYDYVEAMDYWGQGTTVTVSS
VL: B4 VL
B14: anti-CEA antibody with heavy chain CH1A1G and light chain 2F1 (antibody, V domains shown)
VH: B13 VH with F68V, L83I
VL: B4 VL
B15: H4E9 x 2F1 (bivalent) (antibody, V domains shown)
VH: B1 VH with V61I, F102Y, E103D, F105V, K106E, T107A
VL: B4 VL
notes: bivalent form of the clone
B16: 1C8 x 3A1 (antibody, V domains shown)
VH: B1 VH with F102Y, E103H, F105V, K106E, T107A
VL: B1 VL with Q27A, T31N, S50L, Y53N, Y55S, S56G
notes: bivalent form
B17: 3A1 (bivalent) (antibody, V domains shown)
VH: B1 VH with F102Y, E103D, F105V, K106E, T107A
VL: B1 VL with Q27A, T31N, S50L, Y53N, Y55S, S56G
notes: bivalent form of the clone
B18: H3 Full (5) 8 x 2F1 (antibody, V domains shown)
VH: B1 VH
VL: B1 VL with Q27A, N28A, N32Y, Y55K, S56R
notes: bivalent form; copies: 2 + 2
B19: H4E9 x 3A1 (antibody, V domains shown)
VH: B1 VH with V61I, F102Y, E103D, F105V, K106E, T107A
VL: B4 VL with A28N, T31N, Y32N, S50L, Y53N, K55S, R56G
notes: bivalent form
B20: H3 Full (5) 19 x 2F1 (bivalent) (antibody, V domains shown)
VH: B1 VH with N35S, F101A, F105V, T107A, M108L
VL: B1 VL with Q27A, N28A, N32Y, Y55K, S56R
notes: bivalent form of the clone; copies: 2 + 2
B21: 1C8 x 2F1 (bivalent) (antibody, V domains shown)
VH: B1 VH with F102Y, E103H, F105V, K106E, T107A
VL: B1 VL with Q27A, N28A, N32Y, Y55K, S56R
notes: as for B20
B22: 3E1 (Fab, V domains shown)
VH: B1 VH with F102V, E103D, F105V, K106E, T107A
VL: B1 VL
B23: H3 Full (5) 28 (Fab, V domains shown)
VH: B1 VH with E103Y, F105V, K106Q
VL: B1 VL
B24: 2D7 (Fab, V domains shown)
VH: B1 VH with F102Y, E103W, F105V, K106E, T107A
VL: B1 VL
B25: H3 Full (5) 27 (Fab, V domains shown)
VH: B1 VH with F102S, E103Y, F105V, K106E, T107A
VL: B1 VL

Molecular target: T1, huNABA-avi-his (hybrid protein …)
Experiment: Biacore, Fab on immobilized NABA-avi-his; column Monovalent Affinity

Kd [nM]	koff [s⁻¹]	kon [M⁻¹ s⁻¹]	Binder
51	0.0014	27300	B1
128	0.0087	68100	B2
250	0.0117	46800	B3

Molecular target: T1, huNABA-avi-his (hybrid protein …)
Experiment: Proteon SPR, antibody analyte on biotinylated NABA (Neutravidin chip)
Source text: (§1) Shown in FIG. 22 are Proteon (Biacore) sensorgrams obtained for the binding of the CDR-H3 antibody variants to the CEA antigen-harbouring chimeric protein NABA. […] The affinity matured precursor clone 5HFF12 and the parental antibody CH7A were included for direct comparison. All antibodies tested in this assay had 2F1 as the light chain. […] The relative affinity of each, measured in the bivalent form, is as follows: 5HFF12>CH7A (Y98A/D99Y)>CH7A (Y98A)>CH7A>CH7A (E102Q)>CH7A (D99Y)>CH7A (D99H)>CH7A (A103T)>CH7A (V101F)>CH7A (W95Y).

Kd [nM]	Binder
2.87	B4
0.52	B5
1.63	B6
1.73	B7
3.18	B8
2.25	B9

Molecular target: T1, huNABA-avi-his (hybrid protein …)
Experiment: Biacore, column Affinity, CDR-L1 and CDR-L2 rows; antigen not named on the sheet, NABA-avi-his per paragraph 230

Kd [nM]	Binder
700	B10
290	B11
2260	B12
250	B3

Molecular target: T1, huNABA-avi-his (hybrid protein …)
Experiment: Proteon SPR, antibody analyte on biotinylated NABA (Neutravidin chip)
Remark: another data set of the same source

Kd [nM]	Binder
20	B13
6.1	B14

Molecular target: T1, huNABA-avi-his (hybrid protein …)
Experiment: Proteon SPR, antibody analyte on biotinylated NABA (Neutravidin chip); column Ka (M)
Source text: as §1

kon [M⁻¹ s⁻¹]	Binder
25100	B4
132000	B5
198000	B6
114000	B7
59400	B8
86500	B9

Molecular target: T1, huNABA-avi-his (hybrid protein …)
Experiment: Biacore on immobilized NABA-avi-his; Bivalent Affinity

Kd [nM]	koff [s⁻¹]	kon [M⁻¹ s⁻¹]	Binder
0.452	0.000191	423000	B15
0.888	0.000257	289000	B16
1.5	0.000364	242000	B17
0.28	0.000271	993000	B18
0.55	0.000136	246000	B19
0.16	0.000284	1.76e+06	B20
0.66	0.000636	968000	B21

Molecular target: T1, huNABA-avi-his (hybrid protein …)
Experiment: Biacore, column Affinity, CDR-H3 rows; antigen not named on the sheet, NABA-avi-his per paragraph 230

Kd [nM]	Binder
1890	B22
51	B1
81	B23
746	B24
132	B25

Molecular target: T1, huNABA-avi-his (hybrid protein …)
Experiment: Proteon SPR, antibody analyte on biotinylated NABA (Neutravidin chip); column Ka (M)
Remark: another data set of the same source

kon [M⁻¹ s⁻¹]	Binder
21100	B13
73000	B14
